Measured values taken from paper PMC3756332 (Scientific Reports, 2013).

Target: T1, rabbit cytochrome P450 2B4 (rabbit, UniProt P00178 1-491)
T1 sequence (looked up): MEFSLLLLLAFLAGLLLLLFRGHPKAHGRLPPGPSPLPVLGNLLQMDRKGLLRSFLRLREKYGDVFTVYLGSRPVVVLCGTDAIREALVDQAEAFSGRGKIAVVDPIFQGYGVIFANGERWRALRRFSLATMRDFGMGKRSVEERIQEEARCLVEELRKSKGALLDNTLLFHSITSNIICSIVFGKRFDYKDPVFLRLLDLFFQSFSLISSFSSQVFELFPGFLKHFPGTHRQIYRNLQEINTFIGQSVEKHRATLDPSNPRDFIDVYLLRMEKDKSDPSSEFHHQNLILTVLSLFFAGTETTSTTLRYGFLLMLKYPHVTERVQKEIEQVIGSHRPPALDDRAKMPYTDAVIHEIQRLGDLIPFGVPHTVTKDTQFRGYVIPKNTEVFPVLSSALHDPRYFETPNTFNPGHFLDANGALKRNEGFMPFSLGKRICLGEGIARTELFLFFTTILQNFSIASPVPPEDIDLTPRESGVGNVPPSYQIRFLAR
Test: type I spectral change

B1: rabbit cytochrome b5 (natural protein, UniProt P00169 1-134, looked up)
chain: MAAQSDKDVKYYTLEEIKKHNHSKSTWLILHHKVYDLTKFLEEHPGGEEVLREQAGGDATENFEDVGHSTDARELSKTFIIGELHPDDRSKLSKPMETLITTVDSNSSWWTNWVIPAISALIVALMYRLYMADD
modifications: uniformly 15N-labeled (in the NMR experiments)
- binding result: binds
